In patent publication US20160264649A1:

How the values were obtained:
Assay in all cases: cell-based or functional assay
[1] = target: HIV-1 92RW020 Env (HIV-1)
[2] = target: HIV-1 MGRM-A-007 Env (HIV-1)
[3] = target: HIV-1 MGRM-A-010 Env (HIV-1)
[4] = target: HIV-1 MGRM-A-013 Env (HIV-1)
[5] = target: HIV-1 92BR020 Env (HIV-1)
[6] = target: HIV-1 92BR020 Env on pseudovirus (HIV-1)
[7] = target: HIV-1 92UG001 Env (HIV-1)
[8] = target: HIV-1 92UG046 Env (HIV-1)
[9] = target: HIV-1 93TH305 Env on pseudovirus (HIV-1)
[10] = target: HIV-1 94UG114 Env (HIV-1)
[11] = target: HIV-1 APV-17 Env (HIV-1)
[12] = target: HIV-1 APV_17 Env on pseudovirus (HIV-1)
[13] = target: HIV-1 APV_6 Env on pseudovirus (HIV-1)
[14] = target: HIV-1 CAAN.A2 (Acute) Env on pseudovirus (HIV-1)
[15] = target: HIV-1 JRCSF Env (HIV-1) (UniProt P20871)
[16] = target: HIV-1 LAVI_C22 Env on pseudovirus (HIV-1)
[17] = target: HIV-1 MGRM-AE-001 Env (HIV-1)
[18] = target: HIV-1 MGRM-AE-002 Env (HIV-1)
[19] = target: HIV-1 MGRM-AE-003 Env (HIV-1)
[20] = target: HIV-1 MGRM-AE-006 Env (HIV-1)
[21] = target: HIV-1 MGRM-AG-001 Env (HIV-1)
[22] = target: HIV-1 MGRM-AG-003 Env (HIV-1)
[23] = target: HIV-1 MGRM-AG-006 Env (HIV-1)
[24] = target: HIV-1 MGRM-AG-008 Env (HIV-1)
[25] = target: HIV-1 MGRM-AG-013 Env (HIV-1)
[26] = target: HIV-1 MGRM-C-013 Env on pseudovirus (HIV-1)
[27] = target: HIV-1 MGRM-C-014 Env on pseudovirus (HIV-1)
[28] = target: HIV-1 MGRM-Chronic-B-001 Env on pseudovirus (HIV-1)
[29] = target: HIV-1 MGRM-Chronic-B-002 Env on pseudovirus (HIV-1)
[30] = target: HIV-1 MGRM-Chronic-B-003 Env on pseudovirus (HIV-1)
[31] = target: HIV-1 MGRM-Chronic-B-008 Env on pseudovirus (HIV-1)
[32] = target: HIV-1 MGRM-Chronic-B-011 Env on pseudovirus (HIV-1)
[33] = target: HIV-1 MGRM-Chronic-B-017 Env on pseudovirus (HIV-1)
[34] = target: HIV-1 MGRM-Chronic-B-023 Env on pseudovirus (HIV-1)
[35] = target: HIV-1 MGRM-D-002 Env (HIV-1)
[36] = target: HIV-1 MGRM-D-003 Env (HIV-1)
[37] = target: HIV-1 MGRM-D-005 Env (HIV-1)
[38] = target: HIV-1 MGRM-D-013 Env (HIV-1)
[39] = target: HIV-1 MGRM-D-016 Env (HIV-1)
[40] = target: HIV-1 MGRM-D-018 Env (HIV-1)
[41] = target: HIV-1 MGRM-D-021 Env (HIV-1)
[42] = target: HIV-1 MGRM-D-022 Env (HIV-1)
[43] = target: HIV-1 MGRM-D-028 Env (HIV-1)
[44] = target: HIV-1 MGRM-F1-016 Env (HIV-1)
[45] = target: HIV-1 MGRM-G-006 Env (HIV-1)
[46] = target: HIV-1 MGRM-G-019 Env (HIV-1)
[47] = target: HIV-1 MGRM-G-024 Env (HIV-1)
[48] = target: HIV-1 MGRM-G-025 Env (HIV-1)
[49] = target: HIV-1 MGRM-G-027 Env (HIV-1)
[50] = target: HIV-1 MGRM-G-028 Env (HIV-1)
[51] = target: HIV-1 THR0.18 (Acute) Env on pseudovirus (HIV-1)
[52] = target: HIV-1 VLGCB3 Env on pseudovirus (HIV-1)

Chain of 1443_C16 (PG16) (TCN-116) (antibody) (VH): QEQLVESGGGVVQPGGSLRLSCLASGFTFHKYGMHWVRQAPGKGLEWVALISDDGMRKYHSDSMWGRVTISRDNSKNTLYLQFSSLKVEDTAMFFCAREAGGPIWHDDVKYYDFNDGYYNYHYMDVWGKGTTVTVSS
Chain of 1443_C16 (PG16) (TCN-116) (antibody) (VL): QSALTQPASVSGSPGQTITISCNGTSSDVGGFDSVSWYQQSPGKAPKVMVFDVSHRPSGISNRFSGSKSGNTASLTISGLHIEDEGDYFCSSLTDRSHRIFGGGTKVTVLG

Substance: 1443_C16 (PG16) (TCN-116) (antibody)
- neutralization IC50 [1]: 0.28 µg/mL
- neutralization IC50 [2]: 5.91 µg/mL
- neutralization IC50 [3]: 0.004 µg/mL
- neutralization IC50 [4]: 0.09 µg/mL
- neutralization IC50 [5]: > 50 µg/mL
- neutralization IC90 [5]: > 50 µg/mL
- IC50 [6]: > 50 µg/mL
- IC50 (µg/ml), pseudovirus neutralization [7]: > 50 µg/mL
- IC50 (µg/ml), pseudovirus neutralization [8]: 1.42 µg/mL
- IC50 [9]: 19.3 µg/mL
- IC50 (µg/ml), pseudovirus neutralization [10]: > 50 µg/mL
- neutralization IC50 [11]: > 50 µg/mL
- neutralization IC90 [11]: > 50 µg/mL
- IC50 [12]: 24.8 µg/mL
- IC50 [13]: 0.29 µg/mL
- IC50 [14]: 8.83 µg/mL
- neutralization IC50 [15]: < 0.0025 µg/mL
- neutralization IC90 [15]: 0.013 µg/mL
- IC50 [16]: 0.02 µg/mL
- IC50 (µg/ml), pseudovirus neutralization [17]: 4.33 µg/mL
- IC50 (µg/ml), pseudovirus neutralization [18]: 0.01 µg/mL
- IC50 (µg/ml), pseudovirus neutralization [19]: 0.03 µg/mL
- IC50 (µg/ml), pseudovirus neutralization [20]: 0.03 µg/mL
- IC50 (µg/ml), pseudovirus neutralization [21]: 0.03 µg/mL
- IC50 (µg/ml), pseudovirus neutralization [22]: > 50 µg/mL
- IC50 (µg/ml), pseudovirus neutralization [23]: > 50 µg/mL
- IC50 (µg/ml), pseudovirus neutralization [24]: 0.002 µg/mL
- IC50 (µg/ml), pseudovirus neutralization [25]: 0.31 µg/mL
- IC50 [26]: > 50 µg/mL
- IC50 [27]: > 50 µg/mL
- IC50 [28]: > 50 µg/mL
- IC50 [29]: 3.06 µg/mL
- IC50 [30]: 0.19 µg/mL
- IC50 [31]: 0.73 µg/mL
- IC50 [32]: > 50 µg/mL
- IC50 [33]: 0.02 µg/mL
- IC50 [34]: 0.13 µg/mL
- IC50 (µg/ml), pseudovirus neutralization [35]: 0.01 µg/mL
- IC50 (µg/ml), pseudovirus neutralization [36]: 0.01 µg/mL
- IC50 (µg/ml), pseudovirus neutralization [37]: 19.7 µg/mL
- IC50 (µg/ml), pseudovirus neutralization [38]: 0.11 µg/mL
- IC50 (µg/ml), pseudovirus neutralization [39]: 0.02 µg/mL
- IC50 (µg/ml), pseudovirus neutralization [40]: 0.004 µg/mL
- IC50 (µg/ml), pseudovirus neutralization [41]: > 50 µg/mL
- IC50 (µg/ml), pseudovirus neutralization [42]: > 50 µg/mL
- IC50 (µg/ml), pseudovirus neutralization [43]: > 50 µg/mL
- IC50 (pseudovirus neutralization) [44]: 1.12 µg/mL
- IC50 (µg/ml), pseudovirus neutralization [45]: 2.42 µg/mL
- IC50 (µg/ml), pseudovirus neutralization [46]: 1.21 µg/mL
- IC50 (µg/ml), pseudovirus neutralization [47]: 0.01 µg/mL
- IC50 (µg/ml), pseudovirus neutralization [48]: > 50 µg/mL
- IC50 (µg/ml), pseudovirus neutralization [49]: 0.01 µg/mL
- IC50 (µg/ml), pseudovirus neutralization [50]: 3.09 µg/mL
- IC50 [51]: 1.34 µg/mL
- IC50 [52]: 0.4 µg/mL
